{"source": "paper PMC9009374", "molecular_target": "Venus-tagged carboxy-tail segment of CaV1.2 (UniProt P15381)", "sequence (P15381 1525-2171)": "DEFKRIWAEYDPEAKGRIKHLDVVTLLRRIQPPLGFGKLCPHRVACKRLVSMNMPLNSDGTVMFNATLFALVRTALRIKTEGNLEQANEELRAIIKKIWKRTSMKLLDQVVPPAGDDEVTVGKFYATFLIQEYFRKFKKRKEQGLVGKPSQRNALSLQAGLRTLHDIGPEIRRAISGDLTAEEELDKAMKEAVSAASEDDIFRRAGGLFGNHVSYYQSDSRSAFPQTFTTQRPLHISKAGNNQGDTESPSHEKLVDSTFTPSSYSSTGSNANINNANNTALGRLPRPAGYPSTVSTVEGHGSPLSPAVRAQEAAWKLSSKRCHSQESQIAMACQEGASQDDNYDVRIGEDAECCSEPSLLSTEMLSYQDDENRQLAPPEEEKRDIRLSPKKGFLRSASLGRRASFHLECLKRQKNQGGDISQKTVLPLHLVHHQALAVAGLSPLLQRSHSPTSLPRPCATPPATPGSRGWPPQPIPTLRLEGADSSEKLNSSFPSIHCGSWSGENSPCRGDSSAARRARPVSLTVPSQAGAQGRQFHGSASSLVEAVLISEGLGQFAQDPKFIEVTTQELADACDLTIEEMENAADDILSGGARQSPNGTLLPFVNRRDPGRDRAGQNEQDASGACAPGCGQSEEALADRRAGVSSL", "test": "FRET or BRET", "data": [{"substance": "Cerulean-tagged calmodulin (CaM) (from UniProt P0DP23 1-149) (natural protein)", "values": [{"measurement": "stoichiometry N", "result": 1}]}]}
